Experimental data reported in patent EP4711453A1, “PHENYLALANINE LYASE MUTANT, AND CONJUGATE THEREOF OR PHARMACEUTICALLY ACCEPTABLE SALT THEREOF” (Peg-Bio Biopharm Co., Ltd. (Chongqing), priority 2023, dated 2024).
Several values for one entry are separate records, joined by “and”; a condition that tells them apart may be missing. Equal entries are not always repeated.

Legend:
serum phenylalanine [1] = test: Serum phenylalanine concentration after multiple administrations in phenylketonuria model mice (LC-MS/MS); format: in vivo; conditions: Pah^enu mice
From the text: (§1) Phenylalanine hydroxylase (PAH) was central to phenylalanine metabolism in animals, catalyzing the conversion of phenylalanine to tyrosine. Deficiency of this gene underlies phenylketonuria. […] Therefore, the homozygous mouse carrying the missense mutation F263S can be used as an animal model for phenylketonuria (referred to as the Pah^enu mouse or model mouse) in this drug study.
To evaluate the polyethylene glycol conjugate PL54 of site-saturation modified phenylalanine lyase mutant, […] Pah^enu mice were allocated into five groups (four experimental groups and one control group), with six mice in each group. PL54-5 (average degree of modification 13.60, specific enzyme activity 1.27 U/mg) from Table 3 of Example 2 was administered to phenylketonuria animal model mice at low, medium, and high doses of 0.5 mg/kg, 1.5 mg/kg, and 4.5 mg/kg, respectively, via subcutaneous injection. The high-dose group of 4.5 mg/kg also included a group receiving intramuscular administration, once per week. The control group was administered phosphate buffered saline as a placebo subcutaneously once weekly. Blood samples were collected from mice in each group at 1 h before administration and at 2, 5, and 7 days after administration for each group. The content of PL54-5 in serum, changes in phenylalanine concentration (Reference: Judy Peat et al., Determination of Phenylalanine and Tyrosine by High Performance Liquid Chromatography-Tandem Mass Spectrometry), and Anti-PEG-IgM/IgG antibody titers (see Example 5 for details) were detected by sandwich ELISA (see Example 5 for details), and their pharmacokinetics were evaluated, see FIG. 6 to FIG.9 for details.

[2] = Subcutaneous/intravenous pharmacokinetics in dogs (double-antibody sandwich ELISA); format: in vivo; conditions: beagle dogs; for dogs with accelerated blood clearance: 2 mg/kg once weekly
Procedure: […] Six beagle dogs were equally divided into two groups: the subcutaneous administration group and the intravenous administration group. […] Blood samples were collected from both groups on days 1, 3, 5, and 7 after the first administration, and on Day 1 and Day 3 after each subsequent administration. Serum plasma drug concentrations were measured using the double-antibody sandwich ELISA method (see Example 5 for details).

[3] = test system: anti-PAL protein antibodies; test: Anti-PAL protein antibody in rat serum after multiple administrations (bridging ELISA); format: in vivo; conditions: SD rats
Procedure: (§2) To evaluate PEGylated conjugates of phenylalanine lyase or its mutants with different average degrees of modification, the inventors divided SD rats into four groups (n=6 per group). The animals were subcutaneously injected with PL54-1 and PL54-5 (average degrees of modification: 10.54 and 13.60, respectively) and PL5-1 and PL5-5 (average degrees of modification: 8.2 and 10.53, respectively) from Table 3 of Example 2 at a dose of 2 mg/kg once a week for four doses. Blood samples were collected on D1 (Day 1), D3 (Day 3), and D7 (Day 7) after the first dose, as well as on D3 and D7 following each subsequent dose. The concentrations of PL54-1, PL54-5, PL5-1, and PL5-5 in rat serum were determined by sandwich ELISA to assess plasma drug concentration maintenance after multiple administrations. Anti-PEG-IgM/IgG antibody titers in rat serum from each group were measured using indirect ELISA (coating with PEG-BSA, adding positive rat anti-PEG Abs/test serum samples, followed by HRP-conjugated anti-rat IgM/IgG detection), while bridging ELISA (coating with PAL protein, adding positive sheep anti-PAL Abs/acidified serum samples, followed by biotin-labeled PAL detection) was also performed. The plasma drug concentration results are shown in FIG. 4, and the antibody detection results after administration were shown in FIG. 4 and FIG. 5.

[4] = test system: anti-PEG IgG and IgM antibodies; test: Comparative immunogenicity with Pegvaliase: anti-PEG IgG and IgM antibodies after multiple administrations; format: in vivo; conditions: Pah^enu mice, 3 mg/kg s.c. once weekly for four weeks
From the text: (§3) To evaluate the differences in pharmacodynamics and immunogenicity between the polyethylene glycol conjugate PL54-5 of directionally saturated modified phenylalanine lyase mutant and Pegvaliase (marketed drug), eight Pah^enu mice were allocated into two groups of four mice each, and administered with either PL54-5 (average degree of modification: 13.60, specific enzyme activity: 1.27 U/mg) from Table 3 of Example 2 or Pegvaliase Injection (manufactured by BioMarin, purchased lot number L161239, specification: 20 mg/mL/vial) at an administration dose of 3.0 mg/kg, once weekly via subcutaneous injection for four consecutive weeks. Blood samples were collected from each group of mice before administration and at 3 days and 7 days after each administration, respectively. Changes in serum phenylalanine concentration were measured (Reference: Judy Peat et al., Determination of Phenylalanine and Tyrosine by High Performance Liquid Chromatography-Tandem Mass Spectrometry) and anti-PEG-IgM/IgG antibody titers of each animal were determined at the end of the study (see Example 5 for details), to assess differences in pharmacodynamics and immunogenicity, as shown in FIG. 11 and FIG. 12.

[5] = parameters: species or system SD rats; conditions: rat, in vivo, sc, 2 mg/kg
Procedure: as §2

serum phenylalanine [6] = test: Comparative pharmacodynamics with Pegvaliase: serum phenylalanine after multiple administrations; format: in vivo; conditions: Pah^enu mice, 3 mg/kg s.c. once weekly; second to fourth administrations
From the text: as §3

[7] = Serum drug concentration after a single administration in phenylketonuria model mice (sandwich ELISA); format: in vivo; parameters: Blood drug concentration in serum: unit not given here; conditions: Pah^enu mice
From the text: as §1
To evaluate the polyethylene glycol conjugate PL54 of the site-saturation modified phenylalanine lyase mutant, six Pah^enu mice were assigned to three groups of two mice each. PL54-5 (average degree of modification 13.60, specific enzyme activity 1.27 U/mg) from Table 3 of Example 2 was administered to the phenylketonuria animal model mice at low, medium, and high doses of 0.5 mg/kg, 1.5 mg/kg, and 4.5 mg/kg, respectively, via subcutaneous injection. Blood samples were collected from mice in each group at 1 h before administration and at 1, 3, 5, 7, 10, and 14 days after administration, respectively, and the content of PL54-5 in serum was detected by sandwich ELISA (for details, see Example 5).

[8] = test system: anti-PAL4 protein antibodies; test: Anti-PAL4 protein antibody after multiple administrations in phenylketonuria model mice; format: in vivo; conditions: Pah^enu mice

B1: PL54-5: polyethylene glycol conjugate of PAL4 (SEQ ID NO: 6) with PEG-SPA-5K, molar ratio 1:16, average degree of modification 13.60 (conjugate)
chain: MKTLSQAQSKTSSQQFSFTGNSSANVIIGNQKLTINDVARVARNGTLVSLTNNTDILQGIQASCDYINNAVKSGEPIYGVTSGFGGMANVAISREQASELQTNLVWFLKTGAGNKLPLADVRAAMLLRANSHMRGASGIRLELIKRMEIFLNAGVTPYVYEFGSIGASGDLVPLSYITGSLIGLDPSFKVDFNGKEMDAPTALRQLNLSPLTLLPKEGLAMMNGTSVMTGIAANCVYDTKILTAIAMGVHALDIQALNGTNQSFHPFIHNSKPHPGQLWAADQMISLLANSQLVRDELDGKHDYRDHELIQDRYSLRCLPQYLGPIVDGISQIAKQIEIEINSVTDNPLIDVDNQASYHGGNFLGQYVGMGMDHLRYYIGLLAKHLDVQIALLASPEFSNGLPPSLLGNRERKVNMGLKGLQICGNSIMPLLTFYGNSIADRFPTHAEQFNQNINSQGYTSATLARKSVDIFQNYVAIALMFGVQAVDLRTYKKTGHYDARASLSPATERLYSAVRHVVGQKPTSDRPYIWNDNEQGLDEHIAKISADIAAGGVIVQAVQDILPSLH
modifications: PEG-SPA-5K conjugate, ~13.6 PEG per molecule
- efficacy after intramuscular administration (serum phenylalanine [1]; 4.5 mg/kg intramuscular once per week): consistent with that after subcutaneous administration
- serum phenylalanine (serum phenylalanine [1]; high dose 4.5 mg/kg s.c., within 2 days after the first administration): below the method detection limit
- reduction of serum phenylalanine levels (serum phenylalanine [1]; high-dose group 4.5 mg/kg s.c., after five repeated administrations, within 2 days): more than 90%
- decrease of serum phenylalanine levels (serum phenylalanine [1]; medium-dose group 1.5 mg/kg s.c., after five repeated administrations): approximately 75%
- bioavailability of subcutaneous administration relative to intravenous administration ([2]; 2 mg/kg): 64.4%
- dogs with accelerated blood clearance ([2]; after multiple intravenous administrations): 2/3
- dogs with accelerated blood clearance ([2]; after multiple subcutaneous administrations): 1/3
- peak time of blood drug concentration ([2]; 2 mg/kg, single intravenous administration): 1 days
- peak time of blood drug concentration ([2]; 2 mg/kg, single subcutaneous administration): 3 days
- anti-PAL protein antibodies, positive rats ([3]; serum dilution 1:10, 7 days after the fourth dose): 1/6
- anti-PAL protein antibodies ([3]; serum dilution 1:10, after the first dose): very weak positivity
- immunogenicity after long-term administration [4]: significantly lower immunogenicity than pegvaliase
- plasma drug maintenance [5]: superior to that of PL5-1 and PL5-5
- phenylalanine-lowering effect (serum phenylalanine [6]): consistently reduced phenylalanine levels on Day 3
- Blood drug concentration in serum ([7]; single 0.5 mg/kg s.c., 1-D1, dilution 1:500): 0.3
- Blood drug concentration in serum ([7]; single 0.5 mg/kg s.c., 1-D3, dilution 1:500): 2.4
- Blood drug concentration in serum ([7]; single 0.5 mg/kg s.c., 1-D5, dilution 1:500): 0.9
- Blood drug concentration in serum ([7]; single 0.5 mg/kg s.c., 1-D7, dilution 1:500): 0.2
- Blood drug concentration in serum ([7]; single 0.5 mg/kg s.c., 1-D10, dilution 1:500): 0.1
- Blood drug concentration in serum ([7]; single 0.5 mg/kg s.c., D0 (1 h before administration), dilution 1:50): 0
- Blood drug concentration in serum ([7]; single 1.5mg/kg s.c., 1-D1, dilution 1:500, 1.5 mg/kg): 0.5 and 0.6
- Blood drug concentration in serum ([7]; single 1.5mg/kg s.c., 1-D3, dilution 1:500, 1.5 mg/kg): 2.7 and 2.2
- Blood drug concentration in serum ([7]; single 1.5mg/kg s.c., 1-D5, dilution 1:500): 0.9
- Blood drug concentration in serum ([7]; single 1.5mg/kg s.c., 1-D7, dilution 1:500, 1.5 mg/kg): 0.4 and 0.3
- Blood drug concentration in serum ([7]; single 1.5mg/kg s.c., D0 (1 h before administration), dilution 1:50): 0
- Blood drug concentration in serum ([7]; single 4.5 mg/kg s.c., 1-D1, dilution 1:500, 4.5 mg/kg): 1.6 and 0.8
- Blood drug concentration in serum ([7]; single 4.5 mg/kg s.c., 1-D3, dilution 1:500, 4.5 mg/kg): 2.6 and 2.9
- Blood drug concentration in serum ([7]; single 4.5 mg/kg s.c., 1-D5, dilution 1:500, 4.5 mg/kg): 1.9 and 1.2
- Blood drug concentration in serum ([7]; single 4.5 mg/kg s.c., 1-D7, dilution 1:500, 4.5 mg/kg): 0.8 and 0.4
- Blood drug concentration in serum ([7]; single 4.5 mg/kg s.c., 1-D10, dilution 1:500): 0
- Blood drug concentration in serum ([7]; single 4.5 mg/kg s.c., 1-D14, dilution 1:500): 0.2
- Blood drug concentration in serum ([7]; single 4.5 mg/kg s.c., D0 (1 h before administration), dilution 1:50): 0
- plasma drug concentration in relation to the administration dose ([7]; single s.c. injection, 0.5, 1.5 and 4.5 mg/kg): directly proportional to the administration dose
- anti-PAL4 protein antibodies ([8]; intramuscular administration group): weak positivity
- anti-PAL4 protein antibodies ([8]; subcutaneous administration group): negative
